Measured values as given in patent US20260116943A1, “PROCESSES FOR SYNTHESIZING GLUCAGON-LIKE-PEPTIDE 2 (GLP-2) ANALOGUES” (Zealand Pharma A/S, priority 2021, published 2026).
Like-named read-outs stand apart in the source and are kept apart here.

Columns and labels:
[1] = cited from earlier work
[2] = precipitation of ZP1848 in solution with phosphate and NaCl, same conditions as on the column under RPC1; assay type: physicochemical
Method: Additionally, ZP1848 precipitates at neutral pH in solutions containing NaCl, phosphate, NaOH and high ionic strength.
Below in Table 4.1 various formulations of ZP1848 were prepared in 100 mM NaCl and 45 mM phosphate (the buffers are described in Example 1.12) at different pH and/or concentrations in order to reflect the same conditions in solution as present in the column under RPC1.
Additionally, it was shown that ZP1848 precipitates even at low concentrations at pH 7.5 (0.2 and 0.5 mg/mL).

For CC[C@H](C)[C@H](NC(=O)[C@H](Cc1ccccc1)NC(=O)[C@H](CC(=O)O)NC(=O)[C@H](CCCNC(=N)N)NC(=O)[C@H](C)NC(=O)[C@H](C)NC(=O)[C@H](CC(C)C)NC(=O)[C@H](CC(N)=O)NC(=O)[C@H](CC(=O)O)NC(=O)[C@H](CC(C)C)NC(=O)[C@@H](NC(=O)[C@@H](NC(=O)[C@H](CC(N)=O)NC(=O)[C@H](CCSC)NC(=O)[C@H](CCC(=O)O)NC(=O)[C@H](CC(=O)O)NC(=O)[C@H](CO)NC(=O)[C@H](Cc1ccccc1)NC(=O)[C@H](CO)NC(=O)CNC(=O)[C@H](CC(=O)O)NC(=O)CNC(=O)[C@@H](N)Cc1c[nH]cn1)[C@@H](C)O)[C@@H](C)CC)C(=O)N[C@@H](CC(N)=O)C(=O)N[C@@H](Cc1c[nH]c2ccccc12)C(=O)N[C@@H](CC(C)C)C(=O)N[C@H](C(=O)N[C@@H](CCC(N)=O)C(=O)N[C@H](C(=O)N[C@@H](CCCCN)C(=O)N[C@H](C(=O)N[C@H](C(=O)N[C@@H](CC(=O)O)C(=O)O)[C@@H](C)O)[C@@H](C)CC)[C@@H](C)O)[C@@H](C)CC [teduglutide, [hGly2] GLP-2], the half-life ([1]; Gly substitution at position 2, compared with native GLP-2) is given as “about two”.
For “GLP-2 [3-33]: truncated GLP-2 [3-33] (DGSFSDEMNTILDNLAARDFINWLIQTKITD; Glucagon-like peptide 2; UniProt P01275 148-178, looked up, fragment)”, the half-life ([1]; in humans) is listed as about 27 min.
In the case of “H-HGEGTFSSELATILDALAARDFIAWLIATKITDKKKKKK-NH2 [ZP1848]”, the precipitation in solution ([2]; neutral pH, solutions containing NaCl, phosphate, NaOH and high ionic strength) is reported as “precipitates”, the “precipitation at low concentrations” value ([2]; pH 7.5, 0.2 and 0.5 mg/mL) is reported as “precipitates” and the “precipitation in peptide product solution” value ([2]; phosphate buffer/phosphoric acid, neutral pH) is reported as “precipitates”. The “time of precipitation after sample preparation” value ([2]; same conditions in solution as on the column during RPC1) was “within minutes”.
For “Hy-His-Ala-Asp-Gly-Ser-Phe-Ser-Asp-Glu-Met-Asn-Thr-Ile-Leu-Asp-Asn-Leu-Ala-Ala-Arg-Asp-Phe-Ile-Asn-Trp-Leu-Ile-Gln-Thr-Lys-Ile-Thr-Asp-OH [GLP-2 [1-33]]”, the half-life ([1]; in humans) is given as “around 7 minutes”.
